Publication PMC5404824, “Engineering Nucleotide Specificity of Succinyl-CoA Synthetase in Blastocystis: The Emerging Role of Gatekeeper Residues” (Biochemistry, 2016)

Tested on: Nc1nc2c(ncn2[C@@H]2O[C@H](COP(=O)(O)OP(=O)(O)OP(=O)(O)O)[C@@H](O)[C@H]2O)c(=O)[nH]1
Experiment: purified protein
Assay type: biochemical, Blastocystis hominis
Settings: 129 μM CoA, 10 mM succinate, 50 mM KCl, 10 mM MgCl2, 50 mM Tris-HCl pH 7.4, 30 nM enzyme

For “Blastocystis SCS (succinyl-CoA synthetase, SCSα + SCSβ) (Blastocystis sp. ATCC 50177/Nand II; K128D/K60E/L241F/V127L)”, the Km was 82 ± 12 µM, the kcat was 0.0078 ± 0.0004 s⁻¹ and the kcat/Km was 96 M⁻¹ s⁻¹.

For “Blastocystis SCS (succinyl-CoA synthetase, SCSα + SCSβ) (Blastocystis sp. ATCC 50177/Nand II; K128D/K60E)”, the Km was 143 ± 17 µM, the kcat was 0.0195 ± 0.001 s⁻¹ and the kcat/Km was 136 M⁻¹ s⁻¹.
